The results in this text go back to patent publication US20240383974A1 (BETTA PHARMACEUTICALS, published 2024).

Where two headings read alike, the source gives them in different places.

Test [1] has as its target T1, GARP (CHO-K1-GARP cell line that overexpresses GARP) (UniProt Q14392 20-662, limits assumed).
T1 construct: whole, on cells; also called GARP protein
T1 sequence (looked up): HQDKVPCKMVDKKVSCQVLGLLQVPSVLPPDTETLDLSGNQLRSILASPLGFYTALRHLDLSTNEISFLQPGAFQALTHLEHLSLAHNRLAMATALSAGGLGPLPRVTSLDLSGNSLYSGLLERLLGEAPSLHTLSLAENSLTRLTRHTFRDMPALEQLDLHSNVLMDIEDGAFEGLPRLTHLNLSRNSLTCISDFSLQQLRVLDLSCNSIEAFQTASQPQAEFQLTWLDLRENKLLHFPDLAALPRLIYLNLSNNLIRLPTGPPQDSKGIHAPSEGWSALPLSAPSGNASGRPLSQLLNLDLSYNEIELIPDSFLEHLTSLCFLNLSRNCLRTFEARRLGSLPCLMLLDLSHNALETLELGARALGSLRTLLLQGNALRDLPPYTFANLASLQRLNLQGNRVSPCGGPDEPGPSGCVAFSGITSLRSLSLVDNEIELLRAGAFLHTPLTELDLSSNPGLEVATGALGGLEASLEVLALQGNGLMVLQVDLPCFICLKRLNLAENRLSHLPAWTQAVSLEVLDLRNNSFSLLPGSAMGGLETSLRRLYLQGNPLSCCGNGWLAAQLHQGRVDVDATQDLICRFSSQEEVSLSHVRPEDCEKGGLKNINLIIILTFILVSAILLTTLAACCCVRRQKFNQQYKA
In words: FACS on CHO-K1-GARP cells.

The target in test [2] is T2, GARP-TGF-β complex (293-GARP/TGFβ stably transfected cells) (UniProt Q14392 20-662; P01137 30-390).
T2 construct: whole, on cells; Complex of GARP and (latent) TGF-β on the cell surface; also called 293-GARP/TGFβ cell; 293F-GAPR/TGFβ/αvβ6 cells
In words: FACS on 293-GARP/TGFβ cells.

For test [3], the target named is T3, human transforming growth factor β1 (human, UniProt P01137 279-390).
T3 construct: Coated on the ELISA plate at 100 ng/well; also called hTGF-β1; TGF-β
The experiment in a line: ELISA, plate-coated hTGF-β1.

Test [4] addresses T2, GARP-TGF-β complex (293-GARP/TGFβ …). In words: cell-based or functional assay.
Test [5] deals with T4, human PD-L1 (human, UniProt Q9NZQ7 19-290). In words: cell-based or functional assay.
The target of test [6] is T4, human PD-L1. In words: FACS on MC38-hPD-L1 cells.
The target of test [7] is T2, GARP-TGF-β complex (293-GARP/TGFβ …). The experiment in a line: FACS on 293-GARP/TGFβ cells. The source holds these as a separate data set.
Test [8] deals with T1, GARP (CHO-K1-GARP cell line that …). The experiment in a line: FACS on CHO-K1-GARP cells. This is another data set of the same source.
The target in test [9] is T2, GARP-TGF-β complex (293-GARP/TGFβ …). The experiment in a line: FACS on 293-GARP/TGFβ cells. The source holds these as a separate data set.

T4 sequence (Q9NZQ7 19-290): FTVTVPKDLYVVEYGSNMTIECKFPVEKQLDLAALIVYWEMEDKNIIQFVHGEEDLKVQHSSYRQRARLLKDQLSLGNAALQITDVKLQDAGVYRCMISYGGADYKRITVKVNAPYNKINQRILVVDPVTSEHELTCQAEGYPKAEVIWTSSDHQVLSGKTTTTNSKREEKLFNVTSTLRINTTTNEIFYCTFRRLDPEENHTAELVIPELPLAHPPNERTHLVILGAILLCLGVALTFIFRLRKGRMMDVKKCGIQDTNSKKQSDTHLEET
T3 sequence (P01137 279-390 limits assumed): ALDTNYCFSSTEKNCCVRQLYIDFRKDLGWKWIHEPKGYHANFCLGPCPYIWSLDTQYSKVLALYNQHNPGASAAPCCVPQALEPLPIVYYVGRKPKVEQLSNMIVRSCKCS

B1: antibody m107 (antibody, V domains shown)
VH: QVHLQQSGAALARPGASVKMSCKASGYTFSAYTIHWVKQRPGQGLEWIGYINPSNDFAKYIQKFKDKATLTADKSSSTAYMQLNSLTSEDSAIYYCARVDYYGGSYRWYLDVWGAGTTVTVSS
VL: DIVLTQSPATLSVTPGDSVSLSCRASQSISNNLHWYQQKSHESPRLLIKYTSQSISGIPSRFSGSGSGTDFTLSINSVETEDFGMYFCQQSNSWPIFTFGSGTKLEIK
The term EC50 denotes the concentration that produces a half-maximal response. The low end stands for higher potency in that assay, the high end for lower potency in that assay. Regarding B1, the figures for the EC50 in test [1], in [2] and in [3] were greater than 2 nM, 3.2 nM and 0.021 nM, respectively.

B2: b202-L-D2hu (bispecific antibody, human IgG1, kappa)
heavy: not shown
light: DIVLTQSPDSLAVSLGERATINCRASESVTIIGTNLIQWFQQKPGQPPKLLIYHASNLETGVPDRFSGSGSRTDFTLTISSLQAEDVAVYYCLQSRQIPRTFGGGTKVEIKRTVAAPSVFIFPPSDEQLKSGTASVVCLLNNFYPREAKVQWKVDNALQSGNSQESVTEQDSKDSTYSLSSTLTLSKADYEKHKVYACEVTHQGLSSPVTKSFNRGECGGGGSGGGGSGGGGSGGGGSEVQLVESGGGLVQPGGSLRLSCAASGRDFLTYGMGWFRQAPGKGLEFVASINWSGSMTYYADSVKGRFTISRDNAKNSVYLQMNSLRAEDTAVYICAARRGAVTYASSNEYEHWGQGTQVTVSS
notes: also called b202-hu-L-D2hu
With B2, in test [4], the “IC50(nM), TGFβ reporter gene blocking (293F-GAPR/TGFβ/αvβ6 cells with 293-SBE-Luciferase cells)” value was 1.7 nM. In addition, in test [5], the “IC50(nM), PD-1/PD-L1 NFAT-luciferase reporter (293T-hPD-L1 with Jurkat-PD1-CD3zeta-NFAT-Luc2 cells)” value was determined as 13 nM. Further, the results for the EC50 in test [6] and in [7] were 0.39 nM and 5.4 nM, respectively.

B3: antibody m305-hu (antibody, V domains shown)
VH: QVQLVQSGAEVKKPGASVKVSCKTSGYTFTDYNMNWVKQAPGQGLEWIGDINPYSGGTIYNQKFKGRATLTTDTSTSTAYMELRSLRSDDTAVYYCARVSKGSGDYWGQGTLVTVSS
VL: DIQMTQSPSSLSASVGDRVTITCRASQEISGYLSWLQQKPGGAPKRLIYAASTLDSGVPSRFSGSRSGTDYTLTISSLQPEDFATYYCLQYASYPTCTFGGGTKVEIK
notes: Humanized m305
For B3, the values for the EC50 in test [8] and in test [9] were 0.45 nM and 2.1 nM, respectively.

B4: antibody m301 (antibody, V domains shown)
VH: QVQLKESGPGLVAPSQSLSITCTVSGFSLTTYGVTWVRQPPGKGLQWLGLIWGDGTTDYHSTFISRLSISKDKSKNQVFFKLNSLQTDDTATYYCASYYFAMHYWGQGTSVTVSS
VL: DIVMSQSPSSLAVSAGEKVTMNCKSSQSLLNSRTQKNYLAWYQQKPGQSPKLLIYWASTRESGVPDRFTGSGSGTDFTLTIISVQAEDLAVYYCKQSYNLWTFGGGTKLEIK
For the molecule B4, the EC50 in [2] was 2.5 nM; in [3] it was less than 1 nM.

B5: antibody m305 (antibody, V domains shown)
VH: EVQLQQSGPELVKPGASVKIPCKTSGYTFTDYNMNWVKQSHGKSLEWIGDINPYSGGTIYNQKFKGKAILTVDKSSSTAYMELRSLTSEDTGIYYCARVSKGSGDYWGQGTTLTVSS
VL: DIQMTQSPSSLSASLGERVSLTCRASQEISGYLSWLQQKPDGTIKRLIYAASTLDSGVPKRFSGSRSGSDYSLTISSLESEDFADYYCLQYASYPTCTFGGGTKLEIK
Regarding B5, the 50% effective concentration (EC50) is less than 1 nM in [1] and 4.1 nM in test [2].

B6: b202-hu-H-D2hu (bispecific antibody, human IgG1, kappa)
heavy: not shown
light: DIVLTQSPDSLAVSLGERATINCRASESVTIIGTNLIQWFQQKPGQPPKLLIYHASNLETGVPDRFSGSGSRTDFTLTISSLQAEDVAVYYCLQSRQIPRTFGGGTKVEIKRTVAAPSVFIFPPSDEQLKSGTASVVCLLNNFYPREAKVQWKVDNALQSGNSQESVTEQDSKDSTYSLSSTLTLSKADYEKHKVYACEVTHQGLSSPVTKSFNRGEC
notes: also called b202-H-D2hu
B6: the “IC50(nM), TGFβ reporter gene blocking (293F-GAPR/TGFβ/αvβ6 cells with 293-SBE-Luciferase cells)” value in test [4] is 4.9 nM. Besides, in [5], the “IC50(nM), PD-1/PD-L1 NFAT-luciferase reporter (293T-hPD-L1 with Jurkat-PD1-CD3zeta-NFAT-Luc2 cells)” value was 7.8 nM. For the same molecule, the EC50 came to 0.34 nM in test [6] and 5.6 nM in test [7].

B7: antibody m212-hu (antibody, V domains shown)
VH: QVQLVQSGAEVKKPGSSVKVSCKASGYIFTSYWMHWVKQAPGQGLEWIGRIAPNSGGAHYHEKFKTKVTITADKSTSTAYMEFSSLRSEDTAVYYCARGNYGMDYWGQGTAVTVSS
VL: DIQMTQSPSSLSASVGDRVTITCRASQDISNYLNWYQQKPGGAPELLIYYTSTLHSGVPSRFSGSGSGTDYTLTISSLQPEDFATYFCQQVNTLPFTFGSGTKLEIK
notes: Humanized m212
Regarding B7, the EC50 in [8] was 1.4 nM; in test [9], less than 2 nM. Further, the binding result in test [6] is “no binding (tested: initial concentration 200 nM)”.

B8: antibody m212 (antibody, V domains shown)
VH: QVQLQQPGPELVKPGASVKLTCKASGYIFTSYWMHWVKRGPGRGLEWIGRIAPNSGGAHYHEKFKTKVTLTVDKPSSTAYMEFSSLTSEDSAVYYCARGNYGMDYWGQGTAVTVSS
VL: DIQMTQTTSSLSASLGDRVTISCRASQDISNYLNWYQQKPDGTVELLIYYTSTLHSGVPSRFSGSGSGTDYSLTISNLEQEDIATYFCQQVNTLPFTFGSGTKLEII
notes: Hybridoma-derived, expressed in mammalian cells; hIgG1 and hIgG4 as controls
Take B8: the EC50 in test [1] is 0.46 nM; in [2] it was less than 2 nM.
